This note sets out measurements from paper PMC4320627, “Transcription factor MrpC binds to promoter regions of hundreds of developmentally-regulated genes in Myxococcus xanthus”.

Data set [1] concerns the target T1, FruA-His6 (Myxococcus xanthus) (UniProt Q1D7Q3).
T1 sequence: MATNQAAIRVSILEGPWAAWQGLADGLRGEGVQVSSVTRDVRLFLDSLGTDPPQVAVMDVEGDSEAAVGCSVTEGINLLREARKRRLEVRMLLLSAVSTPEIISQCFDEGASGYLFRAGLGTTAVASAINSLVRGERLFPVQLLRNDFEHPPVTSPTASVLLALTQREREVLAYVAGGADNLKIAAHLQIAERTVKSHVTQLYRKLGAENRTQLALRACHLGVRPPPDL
In words: EMSA. Conditions: 2 nM 32P-labeled DNA, 25 C, 15 min, buffer as in cited ref 127 (not given). (In general: Mobility shift assays separate free from complexed probe on a gel.)

A further data set has as its target T2, His10-MrpC2 (Myxococcus xanthus, UniProt Q1D244 26-248).
T2 sequence: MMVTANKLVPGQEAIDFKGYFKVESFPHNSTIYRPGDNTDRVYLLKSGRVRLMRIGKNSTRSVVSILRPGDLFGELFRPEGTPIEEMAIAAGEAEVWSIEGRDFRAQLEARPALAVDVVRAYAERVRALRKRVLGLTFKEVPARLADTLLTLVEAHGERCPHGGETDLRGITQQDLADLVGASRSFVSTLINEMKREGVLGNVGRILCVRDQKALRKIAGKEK
In words: EMSA; 1 uM protein; EMSA, 2 nM 32P-labeled DNA, 25 C, 15 min; buffer as in cited ref 127 (not given). The settings on record: protein: recombinant; tags: N-terminal His10; chain copies: 2; label: 32P; blunt.

In the case of “CAAGGTGATGATGTGCGTCGAGGCTATCGGCCATGTGCGGGAGCGTCAATGTTCGGACCGGGCGGAATTCCGGCTGCCCGGGGAGCGGGCAAGCGCCGTCACACAGCCGACGTTTCCGTCACTGAGGGTACGTCGGGTACGTCACTGGCTCGACGGAGATGGGCGGCCAGGAGTGCGGCGTGCGCGGCGCGGGCGGGAGCGAATACAGCGGCTCG (double strand) [frzS PCR]”, in data set [1], the binding entry is listed as “no binding”. With “CCAGGGAACGTAGAAGTCTGGCAGTTCGAATGGCTGCTTGTTTTTCGCCGTACTCATGGACGCCCCTCGTTGAACTCAGGGGGGCGTTATAGTTAGGCGCTGAACACTTATCCAAGTGTTTCTTGCATAAAAGATTCTCTGGAGAAGTCGCGATTTGCCTGCTGGCGCACGGATTTAGCTCCATCCGTGCGCCGTATTGCTC (double strand) [MXAN_6247 PCR]”, the binding entry in data set [1] was “binds”.

As to “CGAGCTCCTGTGAACCGAAGTCATGCTGCTGGTAGGAGCCCGCTGGGTCTGCCCAGACCTCGCCAATGAGGCGCTGGTCCATTAATTGCTCAACGCAACAACTTGCGAAGCAGTCTGTCGGCTACTTGACCGTGCTTGCCAGTGAATGAGAAGTGACGCCTGCGTGCTGACCGTAATGGGACAGGCGGGGACCATGTATATGAGGTGGAAGAAGC (double strand) [MXAN_5802 PCR]”, the binding result in data set [1] is reported as “no binding”. For “CTCGTTTACGAACTCGTCTGGTCCAAGTACCTCGGGAATGTCCTGGGGAACAGCGGCCAGGCGCATGCCGTGGTGCTCGCCACGTTCATGGGAGGGCAAGCGCTGGGCGCATTTGTCTTCGGGCGGACAGCCGACCGGGCAAAGAACCCCCTGGCCCTTTACGGCCTGCTGGAGCTGGGCGTGGGCCTGTACGCGCTGGTCTTC (double strand) [mrpA PCR]”, the binding entry in data set [1] is “binds more weakly”.

“GATTAGCACTACGCATGCCAACCCAGGTGCGCACTCCAAGCCCCCCAATTCTCAAGGCTTGGAACAATCCCCTCGGCGAGGATGGGTCCAGGGCTGACAAAATTCGGCAGTGACGCTGACGATAACTGTCGATCAGCCTACGCATCCGAAGCGCTCCCGGGCTCCAAGTCATCCGTCAGCCCATGCTTGGCCAACCGGTAGCGGAATGAACGGAACGAAAG (double strand) [pilA PCR]”: in data set [1], the binding entry was “no binding”. On to “GGATTTGCCTTTGCACCTCCAGAACCACCAGTGGGTGAAACAATGTCAACGGGAGTCCTTCGCCACGGCCTTGATTGTCCCTTAGCAAACACAGTGAACCGCACAGCGACAAGGCAGGAATTCGCCCACGCTGGACTCACGGCACGTCGGAAGCATCTCTTGGGAATCAAGAATTGAGTGAGGTCCATCGCCCTGCAATCGATGGCAAAGAG (double strand) [pkn8 PCR]”, for which, in data set [1], the binding entry is on record as “no binding”.

As for “GGCGAACGGGACTTTCCTTCTCCAAGGTTCGTGCCAGCGGGAATTGAAATGCCGCCGGGACAACACCTCCTGAAATGCCGGGTACTTAGCGCTACAGGCCCGCACCAGAGCCCGTTCTGTGTCCAAAACCTGAAACAGAACGTTCAAACAGTCTGATCAATTTGAACGAAACGTTCAAACCGGGGGCATGAGTGTCGGAGCAG (double strand) [mrpC upstream PCR]”, the binding entry in data set [1] was “no binding”. The same measure, in the same setting: the result for “GTACCAACTCGCGCACGTCGGGTGCGGGCAGTCCGTAGCGCTGGCCGTTCAGGGTGAACAGCAGCACCTCCGTGGGTGCGGGGGTCATGTCCTGGGACATAAGACGTGGGCGTGGCCACTGTCGAACATTGATGTCGGCCCGCGGTCGCGGTGTCCACCAGTCCTCAGTGGAGGCAGGAGGAGGGGCCCATGGTTCGGGGGGAACACGACAGGTGCTCGCTGTGC (double strand) [cheW6a PCR]” reads “binds”; that for “GTCTTCCTTGTTGATGAGCCCCGGAGGGGCCATCGCGGTGGGCATAGCGCTCGCAGCGGAGCCCTTCTTCTTCTCATCGGACATGAAATTCAGCCTTTTCTCTTCGACAACCAGTGAACATTTCCAGGTTTTCTGCGGCGGATGAACCAACGTAACAACCAAAACGGACATGGCAAACGCAGTGTGCGTTTTTCCGCCCCCCGTCACCTCTCCAGGGTTCCTCGGAAGTC (double strand) [bsgA PCR]”, “binds”; that for “GTGGGCATCCACGAAGCGCGCCCCGGACTGGTGCGCCCCCTGCTGTCGTGCACGCGGGAGGAGGTGGTGGCCTTCCTGGCGGAGCAGGGTGTCGCCTATGTGACAGACCCGATGAACACCGACCCTGTCCACTTCCGGACGCGCGTTCGCCTTGGAGTGCTACCCGCCCTGTCGCGCGCCGCTGGCTTCGCGGTGGAGG (double strand) [MXAN_4360 PCR]”, “binds more weakly”.

B1: MXAN_0524 probe C (dsDNA)
DNA 1: CATCCAGCCCACCTGTCCTCCACTGAACACGTACTGGCAC
DNA 2: GTGCCAGTACGTGTTCAGTGGAGGACAGGTGGGCTGGATG
As to B1, in the data set with His10-MrpC2, the binding result was “binds”.

B2: MXAN_0524 probe B (dsDNA)
DNA 1: CACAGTCAACGTTTCTCCATCCAGCCCACCTGTCCTCCAC
DNA 2: GTGGAGGACAGGTGGGCTGGATGGAGAAACGTTGACTGTG
For the molecule B2, the binding result with His10-MrpC2 was “no binding”.

B3: MXAN_0524 probe A (dsDNA)
DNA 1: CCGTCCCAACAACTGATACACAGTCAACGTTTCTCCATCC
DNA 2: GGATGGAGAAACGTTGACTGTGTATCAGTTGTTGGGACGG
For B3, in the data set with His10-MrpC2, the binding result is given as “binds”.
